Where two headings read alike, the source gives them in different places. *1 amine or outer side, *2 acyl side, *3 side chain or, on linkers, in order; H or OH if unused. Where no end group is shown, it is not given here. Side-chain parts run from the residue outwards. [ ]: non-standard residue; d: D form. The star is where a group is joined. PEG 40 kDa = PEG (40 kDa) covalently attached to Cys; γGlu = O=C(O)[C@H](CCC(=O)[*:2])N[*:1]; Palmitoyl = CCCCCCCCCCCCCCCC(=O)*; Met(O) = CS(=O)CC[C@H](N)C(=O)O; Myristoyl = CCCCCCCCCCCCCC(=O)*; Nle = CCCC[C@H](N)C(=O)O; Orn = NCCC[C@H](N)C(=O)O; Dab = NCC[C@H](N)C(=O)O; Dap = NC[C@H](N)C(=O)O; Aib = CC(C)(N)C(=O)O; Carbamoyl = NC(=O)*; Acm = CC(=O)NC*
Assays:
Experiment in all cases: cell-based or functional assay
GLP-1 receptor [1] = target: T1, GLP-1 receptor (UniProt P43220 24-463, limits assumed)
GIP receptor [2] = target: T2, GIP receptor (UniProt P48546 22-466)
T2 sequence (looked up): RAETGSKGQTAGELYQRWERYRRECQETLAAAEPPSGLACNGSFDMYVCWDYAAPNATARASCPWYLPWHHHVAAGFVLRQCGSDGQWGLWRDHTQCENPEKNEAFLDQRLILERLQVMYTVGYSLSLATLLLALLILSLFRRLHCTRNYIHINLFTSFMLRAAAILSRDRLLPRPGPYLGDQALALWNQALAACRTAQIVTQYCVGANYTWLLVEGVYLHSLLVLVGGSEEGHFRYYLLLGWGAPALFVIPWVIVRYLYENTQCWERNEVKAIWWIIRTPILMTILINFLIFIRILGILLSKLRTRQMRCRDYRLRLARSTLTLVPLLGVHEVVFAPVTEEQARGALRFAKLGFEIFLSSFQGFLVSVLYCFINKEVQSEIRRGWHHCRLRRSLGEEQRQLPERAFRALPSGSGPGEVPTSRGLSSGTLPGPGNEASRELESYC

glucagon receptor [3] = target: T3, glucagon receptor (UniProt P47871 26-477, limits assumed)
T3 sequence (P47871 26-477 limits assumed): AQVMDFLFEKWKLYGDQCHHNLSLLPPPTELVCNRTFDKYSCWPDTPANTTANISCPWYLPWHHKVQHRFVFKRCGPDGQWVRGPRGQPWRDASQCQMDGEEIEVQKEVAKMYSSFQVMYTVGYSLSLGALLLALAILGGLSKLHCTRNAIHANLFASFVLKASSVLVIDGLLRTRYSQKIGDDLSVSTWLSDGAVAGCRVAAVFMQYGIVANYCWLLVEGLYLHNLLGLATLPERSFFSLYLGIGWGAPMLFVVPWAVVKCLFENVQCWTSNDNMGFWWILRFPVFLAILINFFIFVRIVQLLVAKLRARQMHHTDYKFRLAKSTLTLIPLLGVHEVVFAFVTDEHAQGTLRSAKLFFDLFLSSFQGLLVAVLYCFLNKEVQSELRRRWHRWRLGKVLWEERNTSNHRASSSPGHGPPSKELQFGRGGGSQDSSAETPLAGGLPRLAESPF

glucagon receptor [4] = target: T3, glucagon receptor; remark: listed apart in the source
glucagon receptor [5] = target: glucagon receptor (UniProt P47871 26-477, limits assumed); remark: listed apart in the source
Target sequence in this assay (P47871 26-477 limits assumed): as above

GIP receptor [6] = target: T4, GIP receptor (UniProt P48546 22-466); remark: listed apart in the source
T4 sequence (looked up): T2 sequence (looked up)

GLP-1 receptor [7] = target: GLP-1 receptor (UniProt P43220 24-463, limits assumed); remark: listed apart in the source
glucagon receptor [8] = target: T3, glucagon receptor; remark: listed apart in the source
GLP-1 receptor [9] = target: T1, GLP-1 receptor; remark: listed apart in the source
GIP receptor [10] = target: T2, GIP receptor; remark: listed apart in the source
glucagon receptor [11] = target: T3, glucagon receptor; remark: listed apart in the source

Y[Aib]EGTFTSDK(Myristoyl)SIYLDKQAA[Aib]EFVC(PEG 40 kDa)WLLAGGPSSGAPPPS-NH2 [mt-341]
EC50, nM; GLP-1 Receptor (GLP-1 receptor [1]): 0.0636 nM | relative activity; GLP-1 Receptor (GLP-1 receptor [1]): 14.6% | EC50, nM; GIP Receptor (GIP receptor [2]): 0.0566 nM | relative activity; GIP Receptor (GIP receptor [2]): 27.4% | EC50, nM; Glucagon Receptor (glucagon receptor [3]): 499 nM | relative activity; Glucagon Receptor (glucagon receptor [3]): 0.01%

HS[Met(O)]GTFTSDYSKYLDTRRAAEFVAWL[Nle]DE [Peptide J backbone with M(O) at position 3]
% activity* (glucagon receptor [4]): 7% | EC50 at Glucagon Receptor (glucagon receptor [4]): 0.91 nM

B1: mt-259 (peptide)
peptide: Y[Aib]QGTFTSDYSIYLDSQAA[Aib]EFVCWLLAG-NH2
modifications: N-terminus assumed
SMILES: CC[C@H](C)[C@H](NC(=O)[C@H](CO)NC(=O)[C@H](Cc1ccc(O)cc1)NC(=O)[C@H](CC(=O)O)NC(=O)[C@H](CO)NC(=O)[C@@H](NC(=O)[C@H](Cc1ccccc1)NC(=O)[C@@H](NC(=O)CNC(=O)[C@H](CCC(N)=O)NC(=O)C(C)(C)NC(=O)[C@@H](N)Cc1ccc(O)cc1)[C@@H](C)O)[C@@H](C)O)C(=O)N[C@@H](Cc1ccc(O)cc1)C(=O)N[C@@H](CC(C)C)C(=O)N[C@@H](CC(=O)O)C(=O)N[C@@H](CO)C(=O)N[C@@H](CCC(N)=O)C(=O)N[C@@H](C)C(=O)N[C@@H](C)C(=O)NC(C)(C)C(=O)N[C@@H](CCC(=O)O)C(=O)N[C@@H](Cc1ccccc1)C(=O)N[C@H](C(=O)N[C@@H](CS)C(=O)N[C@@H](Cc1c[nH]c2ccccc12)C(=O)N[C@@H](CC(C)C)C(=O)N[C@@H](CC(C)C)C(=O)N[C@@H](C)C(=O)NCC(N)=O)C(C)C
EC50 (glucagon receptor [5]): 0.297 nM | relative activity (glucagon receptor [5]): 23.1% | EC50 (GIP receptor [6]): 0.0799 nM | relative activity (GIP receptor [6]): 12% | EC50 (GLP-1 receptor [7]): 0.0189 nM | relative activity (GLP-1 receptor [7]): 63%

HS[Dap](Carbamoyl)GTFTSDYSKYLDTRRAAEFVAWL[Nle]DE [Peptide J backbone with Dap(urea) at position 3]
% activity* (glucagon receptor [4]): 13% | EC50 at Glucagon Receptor (glucagon receptor [4]): 0.48 nM

B2: mt-345 (peptide)
peptide: HXQGTFTSDYSKYLDEQAAKEFICWLMNGGPSSGAPPPSK
modifications: listed among the acylated glucagon peptides in paragraph 284; non-standard residues as in the sequence listing
relative activity; GLP-1 Receptor (GLP-1 receptor [1]): 153% | relative activity; GIP Receptor (GIP receptor [2]): 4.99% | relative activity; Glucagon Receptor (glucagon receptor [3]): 193%

HS[Dab](Ac)GTFTSDYSKYLDTRRAAEFVAWL[Nle]DE [Peptide J backbone with Dab(Ac) at position 3]
% activity* (glucagon receptor [4]): 19% | EC50 at Glucagon Receptor (glucagon receptor [4]): 0.31 nM

Y[Aib]EGTFTSDYSIYLDKQAA[Aib]EFVC(PEG 40 kDa)WLLAGGPSSGAPPPSK(Myristoyl)-NH2 [mt-353]
EC50, nM; GLP-1 Receptor (GLP-1 receptor [1]): 0.0049 nM | relative activity; GLP-1 Receptor (GLP-1 receptor [1]): 129% | EC50, nM; GIP Receptor (GIP receptor [2]): 0.0035 nM | relative activity; GIP Receptor (GIP receptor [2]): 103% | EC50, nM; Glucagon Receptor (glucagon receptor [3]): 12.5 nM | relative activity; Glucagon Receptor (glucagon receptor [3]): 0.17%

B3: HSDab(Ac)…ibRRAADFVAWLLDTGPSSGAPPPS amide (peptide)
peptide: HS[Dab](Ac)GTFTSDYSKYLD[Aib]RRAADFVAWLLDTGPSSGAPPPS-NH2
modifications: N-terminus assumed
SMILES: CC(=O)NCC[C@H](NC(=O)[C@H](CO)NC(=O)[C@@H](N)Cc1c[nH]cn1)C(=O)NCC(=O)N[C@H](C(=O)N[C@@H](Cc1ccccc1)C(=O)N[C@H](C(=O)N[C@@H](CO)C(=O)N[C@@H](CC(=O)O)C(=O)N[C@@H](Cc1ccc(O)cc1)C(=O)N[C@@H](CO)C(=O)N[C@@H](CCCCN)C(=O)N[C@@H](Cc1ccc(O)cc1)C(=O)N[C@@H](CC(C)C)C(=O)N[C@@H](CC(=O)O)C(=O)NC(C)(C)C(=O)N[C@@H](CCCNC(=N)N)C(=O)N[C@@H](CCCNC(=N)N)C(=O)N[C@@H](C)C(=O)N[C@@H](C)C(=O)N[C@@H](CC(=O)O)C(=O)N[C@@H](Cc1ccccc1)C(=O)N[C@H](C(=O)N[C@@H](C)C(=O)N[C@@H](Cc1c[nH]c2ccccc12)C(=O)N[C@@H](CC(C)C)C(=O)N[C@@H](CC(C)C)C(=O)N[C@@H](CC(=O)O)C(=O)N[C@H](C(=O)NCC(=O)N1CCC[C@H]1C(=O)N[C@@H](CO)C(=O)N[C@@H](CO)C(=O)NCC(=O)N[C@@H](C)C(=O)N1CCC[C@H]1C(=O)N1CCC[C@H]1C(=O)N1CCC[C@H]1C(=O)N[C@@H](CO)C(N)=O)[C@@H](C)O)C(C)C)[C@@H](C)O)[C@@H](C)O
% activity* (glucagon receptor [8]): 113% | EC50 (nM) at Glucagon Receptor (glucagon receptor [8]): 0.023 nM

HSQGTFTSDYSKYLD[Aib]RRAADFVAWLMDE [Peptide K backbone with Q at position 3]
% activity* (glucagon receptor [4]): 15%

HSQGTFTSDYSKYLDTRRAAEFVAWL[Nle]DE [Peptide J backbone with Q at position 3]
% activity* (glucagon receptor [4]): 25%

B4: mt-343 (peptide)
peptide: YXEGTFTSDYSIYLDKQAAXEFVNWLLAGGPSSGAPPPSKC
modifications: AIB at position 20 (Example 25); listed among the acylated glucagon peptides in paragraph 284; other non-standard residues as in the sequence listing
EC50, nM; GLP-1 Receptor (GLP-1 receptor [1]): 0.0224 nM | relative activity; GLP-1 Receptor (GLP-1 receptor [1]): 41.5% | EC50, nM; GIP Receptor (GIP receptor [2]): 0.0243 nM | relative activity; GIP Receptor (GIP receptor [2]): 63.8% | EC50, nM; Glucagon Receptor (glucagon receptor [3]): 41.1 nM | relative activity; Glucagon Receptor (glucagon receptor [3]): 0.07%

B5: mt-344 (peptide)
peptide: B4 peptide
modifications: AIB at position 20 (Example 25); other non-standard residues as in the sequence listing
EC50, nM; GLP-1 Receptor (GLP-1 receptor [1]): 0.089 nM | relative activity; GLP-1 Receptor (GLP-1 receptor [1]): 10.4% | EC50, nM; GIP Receptor (GIP receptor [2]): 0.0319 nM | relative activity; GIP Receptor (GIP receptor [2]): 48.6% | EC50, nM; Glucagon Receptor (glucagon receptor [3]): 159 nM | relative activity; Glucagon Receptor (glucagon receptor [3]): 0.02%

HS[Orn](Ac)GTFTSDYSKYLDTRRAAEFVAWL[Nle]DE [Peptide J backbone with Orn(Ac) at position 3]
% activity* (glucagon receptor [4]): 7% | EC50 at Glucagon Receptor (glucagon receptor [4]): 0.92 nM

HS[Dab](Ac)GTFTSDYSKYLD[Aib]RRASDFVSWLLDE [HSDab(Ac)…ibRRASDFVSWLLDE]
% activity* (glucagon receptor [8]): 54% | EC50 (nM) at Glucagon Receptor (glucagon receptor [8]): 0.048 nM

B6: mt-384 (peptide)
peptide: Y[Aib]QGTFTSDK([γGlu-γGlu-Palmitoyl])SIYLDKQAA[Aib]EFVNWLLAGGPSSGAPPPS-NH2
modifications: N-terminus assumed
SMILES: CCCCCCCCCCCCCCCC(=O)N[C@@H](CCC(=O)N[C@@H](CCC(=O)NCCCC[C@H](NC(=O)[C@H](CC(=O)O)NC(=O)[C@H](CO)NC(=O)[C@@H](NC(=O)[C@H](Cc1ccccc1)NC(=O)[C@@H](NC(=O)CNC(=O)[C@H](CCC(N)=O)NC(=O)C(C)(C)NC(=O)[C@@H](N)Cc1ccc(O)cc1)[C@@H](C)O)[C@@H](C)O)C(=O)N[C@@H](CO)C(=O)N[C@H](C(=O)N[C@@H](Cc1ccc(O)cc1)C(=O)N[C@@H](CC(C)C)C(=O)N[C@@H](CC(=O)O)C(=O)N[C@@H](CCCCN)C(=O)N[C@@H](CCC(N)=O)C(=O)N[C@@H](C)C(=O)N[C@@H](C)C(=O)NC(C)(C)C(=O)N[C@@H](CCC(=O)O)C(=O)N[C@@H](Cc1ccccc1)C(=O)N[C@H](C(=O)N[C@@H](CC(N)=O)C(=O)N[C@@H](Cc1c[nH]c2ccccc12)C(=O)N[C@@H](CC(C)C)C(=O)N[C@@H](CC(C)C)C(=O)N[C@@H](C)C(=O)NCC(=O)NCC(=O)N1CCC[C@H]1C(=O)N[C@@H](CO)C(=O)N[C@@H](CO)C(=O)NCC(=O)N[C@@H](C)C(=O)N1CCC[C@H]1C(=O)N1CCC[C@H]1C(=O)N1CCC[C@H]1C(=O)N[C@@H](CO)C(N)=O)C(C)C)[C@@H](C)CC)C(=O)O)C(=O)O
% Relative activity at the Receptor for GLP-1 (GLP-1 receptor [9]): 349% | % Relative activity at the Receptor for GIP (GIP receptor [10]): 808% | % Relative activity at the Receptor for Glucagon (glucagon receptor [11]): 228%

HS[Dab](Ac)GTFTSDYSKYLD[Aib]RRAADFVAWLMDE [Peptide K backbone with Dab(Ac) at position 3]
% activity* (glucagon receptor [4]): 86% | EC50 at Glucagon Receptor (glucagon receptor [4]): 0.07 nM

HS[Dab](Ac)GTFTSDYSKYLD[Aib]RRATDFVTWLLDE [HSDab(Ac)…ibRRATDFVTWLLDE]
% activity* (glucagon receptor [8]): 46% | EC50 (nM) at Glucagon Receptor (glucagon receptor [8]): 0.057 nM

HSC(Acm)GTFTSDYSKYLDTRRAAEFVAWL[Nle]DE [Peptide J backbone with C(Acm) at position 3]
% activity* (glucagon receptor [4]): 33%
